The values that follow come from patent US7655619B2, “Insulin-associated peptides with effects on cerebral health” (Thomas Jefferson University, priority 2002, dated 2010).

Data set [1] relates to rats. The experiment in a line: one-trial passive avoidance with insulin antagonist α2HSG alone or in combination. It counts as in vivo. As to conditions: for latency time in passive avoidance: compared to vehicle alone.
Procedure: After a 20 minute pretreatment time, rats were placed in the light side of a two-chambered light/dark Plexiglas passive avoidance apparatus (MED Associates). Once the rat entered the dark chamber, a guillotine door was closed and a 1.0 mA shock (3 sec) was administered. The door was then raised and the rat was allowed to re-enter the light side. Latency (max 600 sec) to enter the dark chamber was taken as a measurement of associative learning.
Data set [2] deals with rats. The experiment in a line: Morris Water Maze (spatial learning), intranasal administration. It counts as in vivo, Male Sprague Dawley rats.
Procedure: Spatial learning was assessed using the Morris Water Maze (Morris et al. Nature, 1982, 297: 681). […] Animals were anaesthetized with isofluorane then administered peptide intra-nasally 20 min before testing. Rats were given four training trials. 48 h after training, a retention test was performed: rats were allowed to find the hidden platform for one trial. […] Latency to find the platform was considered a measure of retention of spatial learning.
Data set [3] can be described thus: blood glucose levels by glucometer after intranasal administration. To be noted: doses 3-30 μg, twenty minutes after administration, vs vehicle. The procedure: Rats (N-5/group) were first anesthetized with isoflorane anesthesia and then administered vehicle (5% (2,6-DI—O-methyl)β-cyclodextrin) or insulin (3-30 μg, 28 USP units/mg) intra-nasally. Twenty minutes later, rats were sacrificed and blood glucose levels rapidly determined with a glucometer (Elite XL, Bayer).

For data set [4], the system named is rats. The experiment in a line: locomotor activity in open field testing chamber. To be noted: 3-30 μg intranasal, 30 minutes in open field chamber, data not shown. The method, then:
Following pretreatment, the rats were placed for 30 minutes in an open field testing chamber (17″×17″×12″ H) where movement was detected every 50 ms by infrared photo beam emitter and detector strips at 1″ and 10″ from the bottom of the chamber. The activity chambers were lined to a PC computer and data was compiled via Activity Monitor Software (4.0, MED Associates, St. Albans, Vt.).

Data set [5] has as its system rats. The data set can be described thus: one-trial passive avoidance procedure (associative learning), intranasal pretreatment. It counts as in vivo, Male Sprague Dawley rats. The method, then:
Passive avoidance was performed in an apparatus (MED Associates Inc., St. Albans, Vt.) consisting of one dark chamber and one light chamber that can be divided by a guillotine door. The training procedure was executed as previously described (N. Venable et al. Psychopharmacology 100, 215 (1990)). Rats were administered a 1.0 mA shock for 3 sec, mice a 0.5 mA shock for 5 sec. Retention tests were performed either at 1, 3 or 7 days post-pairing. Maximum latency was 600 sec for rats, 300 sec for mice.
A control group received vehicle (5% cyclodextrin) alone.

In the case of “insulin: insulin from bovine pancreas (C254H377N65O75S6), 28 USP units/mg, from Sigma”, the “latency time in passive avoidance” value in data set [1] (insulin 10 μg alone intranasal) is recorded as “enhanced latency time”. The “latency to find hidden platform, retention test” value in data set [2] (intranasal 3 μg, 48 hours following training, compared to vehicle) is “significantly deceased latency”. Also, the “latency to find submerged platform, acquisition during training” value in data set [2] (intranasal 3-30 μg, four training trials, between groups incl. vehicle) is listed as “No significant differences occurred in acquisition between groups during training”. Besides, the swimming speed result in data set [2] (intranasal, compared to vehicle) is recorded as “do not affect swimming speed compared to vehicle”. In addition, the blood glucose levels entry in data set [3] was “no significant differences between treatment groups”. For the same molecule, the “distance traveled (locomotor activity)” value in data set [4] is reported as “did not differ between treatments”. Further, in data set [5] (FIG. 9, 24 hours), the “retention of associative learning (24 hours)” value was “enhances retention of associative learning”. Further, the “latency to enter the dark chamber (associative learning)” value in data set [5] (intranasal 10 μg dose, pretreatment 20 min, compared to vehicle) is on record as “significantly (P<0.05) enhanced latency”.

B1: α2HSG: endogenous inhibitor of insulin receptor tyrosine kinase activity; insulin antagonist (protein, UniProt P02765 19-300; P02765 341-367, looked up)
Alpha-2-HS-glycoprotein chain … 1: APHGPGLIYRQPNCDDPETEEAALVAIDYINQNLPWGYKHTLNQIDEVKVWPQQPSGELFEIEIDTLETTCHVLDPTPVARCSVRQLKEHAVEGDCDFQLLKLDGKFSVVYAKCDSSPDSAEDVRKVCQDCPLLAPLNDTRVVHAAKAALAAFNAQNNGSNFQLEEISRAQLVPLPPSTYVEFTVSGTDCVAKEATEAAKCNLLAEKQYGFCKATLSEKLGGAEVAVTCMVFQTQPVSSQPQPEGANEAVPTPVVDPDAPPSPPLGAPGLPPAGSPPDSHVL
Alpha-2-HS-glycoprotein chain … 2: TVVQPSVGAAAGPVVPPCPGRIRHFKV
In the case of B1, the “latency time in passive avoidance” value in data set [1] (α2HSG 30 μg alone) was “no difference between antagonist alone and vehicle alone”. The “effect on enhancement of latency times by A-chain” value in data set [1] (α2HSG 30 μg in combination with A-chain 3 μg, intranasal) was “blocked enhancement of latency times by A-chain”. The “effect on enhancement of latency times by insulin” value in data set [1] (α2HSG 3-30 μg in combination with insulin 10 μg, intranasal) was “blocked enhancement of latency times by insulin”.
